Measured values taken from patent US20040121362A1.

What was measured:
[1] = molecular target: Flag-RAI-3 recombinant protein expressed in the stable Flag-RAI-3 CHO cell line (CHO/NFAT G alpha 15), clone B8 (human) (UniProt Q8NFJ5); experiment: FACS, clone B8 against parental CHO
[2] = molecular target: Flag-RAI-3 recombinant protein expressed in the stable Flag-RAI-3 CHO cell line (CHO/NFAT G alpha 15), clone B8 (human) (UniProt Q8NFJ5); experiment: FACS, gating 100%; parental CHO mean signal 4.82

Chain of UniProt Q8NFJ5 (Q8NFJ5 other isoform, or with tags, fused parts or gaps): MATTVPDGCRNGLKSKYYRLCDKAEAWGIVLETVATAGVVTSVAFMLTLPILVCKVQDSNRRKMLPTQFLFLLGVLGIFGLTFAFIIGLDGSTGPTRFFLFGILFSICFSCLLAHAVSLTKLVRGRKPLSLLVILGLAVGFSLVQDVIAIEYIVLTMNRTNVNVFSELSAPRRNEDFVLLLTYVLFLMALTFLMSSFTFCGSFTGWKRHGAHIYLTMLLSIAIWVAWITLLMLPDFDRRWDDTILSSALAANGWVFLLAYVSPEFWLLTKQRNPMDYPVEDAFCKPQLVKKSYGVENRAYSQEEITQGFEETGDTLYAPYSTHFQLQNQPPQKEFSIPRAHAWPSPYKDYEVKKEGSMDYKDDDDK

fold over background [1]: 7 fold
mean signal [2]: 35
Substance: Anti-FLAG FITC (Sigma, Catalog #F4049) (antibody)
